The values below come from patent publication US20070066547.

The subject of data set [1] is HIV-1 Ba-L virus (gp120) (Human immunodeficiency virus 1 (Ba-L)). Description: cell_activity. As to conditions: 2'-F pyrimidines (U, C).
For data set [2], the system named is gp120 envelope glycoprotein, HIV-1 Ba-L (SU) (Human immunodeficiency virus 1 (Ba-L)). Description: competition. As to conditions: 2'-F pyrimidines (U, C); at highest aptamer concentration, no CD4; 48d inhibited at nM with CD4; CG10 and sCD4 binding not inhibited.
In data set [3] the test system is HIV-1 Ba-L break-through clones after B4 selection (gp120) (Human immunodeficiency virus 1 (Ba-L)). As to the kind of experiment: cell_activity. As to conditions: 2'-F pyrimidines (U, C); 100 nM aptamer; all four break-through clones neutralised.

As to “AUGACGUACCCGCACAAGCCACCACAAGUCUUAAUCGCGCCACCCUUGC [B84]”, the activity (log10 IU/ml reduction) in data set [1] (100 nM aptamer, PBMC TCID50) is over 4.

Consider “GAGCGGUUAAGGGAGAUUUAGGCAGCAGCUUGGACAGUGUAUCGGCUGAG [B4]”, for which the binding signal (% inhibition of mAb 17b binding) in data set [2] was determined as 50. Also, the IC50 in data set [1] (neutralisation in human PBMC, about 5 log10 at 100 nM) was under 1 nM. In data set [3], this sequence returned an activity (log10 IU/ml reduction) of over 4.
